Values quoted from earlier work as cited in PMC3491057, “Proliferating Cell Nuclear Antigen (PCNA) Interactions in Solution Studied by NMR” (PLoS ONE, 2012).

Biological target: T1, human PCNA (Homo sapiens, UniProt P12004)
T1 construct: His6 tag with PreScission protease cleavage site (N, cleaved yes); made in house; host or cells: E. coli
Details: PIP-box fragments
Description: The CDK inhibitor p21 mediates the cellular response to DNA damage by arresting the cell cycle at the G1 phase, inhibiting the progression into the S phase and thus DNA replication. It is an intrinsically disordered protein with an N-terminal sequence similar to other CDK-inhibitory proteins (including p27^Kip1, p57^Kip2, and p27^XIC1) and a C-terminal region containing a PIP-box. […] The smallest p21 fragment still competing with p21^20 ... || We have characterized the thermodynamics of the p21^20 and p21^12 peptides binding to PCNA by Isothermal Titration Calorimetry (ITC) in the same buffer (PBS pH 7.0) and at the same temperature (35°C) as the NMR experiments described below (Figure 3 and Figure S2). To allow comparison with data in the literature for the p21^20 [34], ITC experiments were also carried out at 30°C.

T1 sequence (P12004 whole entry): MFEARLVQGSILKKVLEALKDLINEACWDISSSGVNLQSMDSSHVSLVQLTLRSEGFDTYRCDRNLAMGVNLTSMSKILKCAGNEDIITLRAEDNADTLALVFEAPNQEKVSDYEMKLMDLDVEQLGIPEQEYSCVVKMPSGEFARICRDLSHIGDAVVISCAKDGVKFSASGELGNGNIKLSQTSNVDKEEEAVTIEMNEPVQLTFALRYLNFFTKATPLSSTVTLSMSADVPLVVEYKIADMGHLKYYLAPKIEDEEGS

Row | Kd [µM] | Substance
1 | 1.5 | p66^22: PIP-box fragment of p66, subunit 3 of human replicative DNA polymerase-δ (POLD3) (KANRQVSITGFFQRK)
2 | 60 | Fen-1^22: PIP-box fragment of Flap endonuclease 1 (SRQGSTQGRLDDFFKVTGSL)
